Target: M6P receptor on the surface of human MPS IIIB skin fibroblasts (human)
Experiment: cell-based or functional assay

B1: recombinant human N-acetyl-alpha-D-glucosaminidase (rhNaGlu) produced in transgenic avian (Gallus) egg white (enzyme)
chain: DEAREAAAVRALVARLLGPGPAADFSVSVERALAAKPGLDTYSLGGGGAARVRVRGSTGVAAAAGLHRYLRDFCGCHVAWSGSQLRLPRPLPAVPGELTEATPNRYRYYQNVCTQSYSFVWWDWARWEREIDWMALNGINLALAWSGQEAIWQRVYLALGLTQAEINEFFTGPAFLAWGRMGNLHTWDGPLPPSWHIKQLYLQHRVLDQMRSFGMTPVLPAFAGHVPEAVTRVFPQVNVTKMGSWGHFNCSYSCSFLLAPEDPIFPIIGSLFLRELIKEFGTDHIYGADTFNEMQPPSSEPSYLAAATTAVYEAMTAVDTEAVWLLQGWLFQHQPQFWGPAQIRAVLGAVPRGRLLVLDLFAESQPVYTRTASFQGQPFIWCMLHNFGGNHGLFGALEAVNGGPEAARLFPNSTMVGTGMAPEGISQNEVVYSLMAELGWRKDPVPDLAAWVTSFAARRYGVSHPDAGAAWRLLLRSVYNCSGEACRGHNRSPLVRRPSLQMNTSIWYNRSDVFEAWRLLLTSAPSLATSPAFRYDLLDLTRQAVQELVSLYYEEARSAYLSKELASLLRAGGVLAYELLPALDEVLASDSRFLLGSWLEQARAAAVSEAEADFYEQNSRYQLTLWGPEGNILDYANKQLAGLVANYYTPRWRLFLEALVDSVAQGIPFQQHQFDKNVFQLEQAFVLSKQRYPSQPRGDTVDLAKKIFLKYYPRWVAGSW
modifications: N-linked glycans carrying mannose-6-phosphate (3.2 moles of M6P per mole of protein), mannose and GlcNAc; sites not stated
For B1, the “NaGlu enzymatic activity in human MPS IIIB fibroblasts after 24 h with 0.3 ug/mL rhNaGlu (cellular uptake)” value was ~50 % of wild-type fibroblast activity, the “NaGlu enzymatic activity in human MPS IIIB fibroblasts after 24 h with 1 ug/mL rhNaGlu (cellular uptake)” value was ~4 fold of wild-type fibroblast activity and the “NaGlu enzymatic activity in human MPS IIIB fibroblasts after 24 h with 30 ug/mL rhNaGlu (cellular uptake)” value was ≥ 40 fold of wild-type fibroblast activity.

Source: patent US20190083583A1 (Alexion, published 2019)
